According to patent publication US12649008B2, “Peptide receptor radionuclide therapy” (The Regents of the University of California, priority 2020, dated 2026):
Like-named read-outs stand apart in the source and are kept apart here.

Tests used:
[1] = Biodistribution in mice bearing BxPC-3 tumors; format: in vivo; settings: female, nu/nu nude, mouse, iv, total radioactivity; for tissue uptake at 1 h: 1 h p.i.; for tissue uptake at 4 h: 4 h p.i.; for tissue uptake at 24 h: 24 h p.i.; for tissue uptake at 48 h: 48 h p.i.; for tissue uptake at 72 h: 72 h p.i.
Method: (§1) Female nu/nu nude mice (6-8 weeks old) were purchased from Charles River Laboratories (Wilmington, MA, USA) and handled according to the UC Davis Institutional Animal Care and Use Committee. BxPC-3 cells (5×10^6) in 100 μl 1:1 GFR-Matrigel: serum-free RPMI were implanted subcutaneously into the left shoulder flank and allowed to grow for approximately 2 weeks (therapy study) and 3 weeks (0.5-1 cm in diameter, for imaging and biodistribution studies). All cells were evaluated with flow cytometry before injection to confirm integrin expression levels. Food and water were available ad libitum.
(§2) For blocking studies, respective non-chelated cold peptide (30 mg/kg, 10 mg/mL (DOTA-5G) and 48 mg/kg, 16 mg/mL (DOTA-ABM-5G) solution in PBS) was injected 10 min. before the formulated radiotracer. At each time point, the mice (n=3/time point/radiotracer) were anesthetized and sacrificed. The tissues were collected, rinsed with PBS, and the radioactivity of each measured with a gamma counter. Radioactivity concentrations were calibrated, decay-corrected, and expressed as percent of injected dose per gram of tissue (% ID/g).

BxPC-3 (αvβ6 (+)) tumors = assay: Biodistribution in mice bearing BxPC-3 tumors; format: in vivo
Method: as §1, §2

[2] = BxPC-3 tumor, read-out: uptake BxPC-3 tumor
[3] = bladder, read-out: uptake Bladder
[4] = gall bladder, read-out: uptake Gall Bladder
[5] = kidneys, read-out: uptake Kidneys
[6] = large intestines, read-out: uptake Lg Intestines
[7] = muscle, read-out: uptake Muscle
[8] = pancreas, read-out: uptake Pancreas
[9] = small intestines, read-out: uptake Sm Intestines
[10] = spleen, read-out: uptake Spleen
[11] = stomach, read-out: uptake Stomach

## CNC(=O)C(CCCCNC(=O)C(CC(=O)O)NC(=O)CCCNC(=O)CCCc1ccc(I)cc1)NC(=O)CN1CCN2CCN3CCN(CC1)CC(=O)[O][177Lu]([O]C(=O)C2)[O]C(=O)C3 (centres unmarked) [[^177Lu]Lu DOTA-ABM-5G]
[1]; [2]
  tissue uptake at 1 h: 4.54 ± 0.42 %ID/g
  tissue uptake at 4 h: 7.15 ± 3.04 %ID/g
  tissue uptake at 24 h: 5.25 ± 0.71 %ID/g
  tissue uptake at 48 h: 5.12 ± 0.47 %ID/g
  tissue uptake at 72 h: 5.29 ± 0.75 %ID/g
[1]; [3]
  tissue uptake at 1 h: 6.75 ± 2.39 %ID/g
  tissue uptake at 24 h: 2.91 ± 0.16 %ID/g
  tissue uptake at 48 h: 2.69 ± 0.33 %ID/g
  tissue uptake at 72 h: 3.29 ± 0.63 %ID/g
[1]; blood, read-out: uptake Blood
  tissue uptake at 1 h: 5.36 ± 0.71 %ID/g
  tissue uptake at 24 h: 0.08 ± 0.01 %ID/g
  tissue uptake at 48 h: 0.02 %ID/g
  tissue uptake at 72 h: 0.01 %ID/g
[1]; bone, read-out: uptake Bone
  tissue uptake at 1 h: 0.66 ± 0.15 %ID/g
  tissue uptake at 24 h: 0.27 ± 0.08 %ID/g
  tissue uptake at 48 h: 0.16 ± 0.19 %ID/g
  tissue uptake at 72 h: 0.19 ± 0.13 %ID/g
[1]; brain, read-out: uptake Brain
  tissue uptake at 1 h: 0.14 ± 0.01 %ID/g
  tissue uptake at 24 h: 0.04 ± 0.01 %ID/g
  tissue uptake at 48 h: 0.02 %ID/g
  tissue uptake at 72 h: 0.03 %ID/g
[1]; [4]
  tissue uptake at 1 h: 1.72 ± 0.46 %ID/g
  tissue uptake at 24 h: 1.11 ± 0.71 %ID/g
  tissue uptake at 48 h: 0.71 ± 0.13 %ID/g
  tissue uptake at 72 h: 1.09 ± 0.61 %ID/g
[1]; heart, read-out: uptake Heart
  tissue uptake at 1 h: 2.05 ± 0.37 %ID/g
  tissue uptake at 24 h: 0.71 ± 0.05 %ID/g
  tissue uptake at 48 h: 0.64 ± 0.06 %ID/g
  tissue uptake at 72 h: 0.46 ± 0.11 %ID/g
[1]; [5]
  tissue uptake at 1 h: 20.9 ± 3.1 %ID/g
  tissue uptake at 24 h: 12.3 ± 1.24 %ID/g
  tissue uptake at 48 h: 10.1 ± 1.04 %ID/g
  tissue uptake at 72 h: 8.84 ± 1.15 %ID/g
[1]; [6]
  tissue uptake at 1 h: 6.31 ± 1.86 %ID/g
  tissue uptake at 4 h: < 7 %ID/g
  tissue uptake at 24 h: 3.63 ± 0.09 %ID/g
  tissue uptake at 48 h: 3.13 ± 0.53 %ID/g
  tissue uptake at 72 h: 3.01 ± 0.44 %ID/g
[1]; liver, read-out: uptake Liver
  tissue uptake at 1 h: 1.05 ± 0.05 %ID/g
  tissue uptake at 4 h: < 1 %ID/g
  tissue uptake at 24 h: 0.22 ± 0.01 %ID/g
  tissue uptake at 48 h: 0.16 ± 0.02 %ID/g
  tissue uptake at 72 h: 0.12 ± 0.01 %ID/g
[1]; lung, read-out: uptake Lung
  tissue uptake at 1 h: 2.68 ± 0.21 %ID/g
  tissue uptake at 24 h: 1.1 ± 0.15 %ID/g
  tissue uptake at 48 h: 0.68 ± 0.08 %ID/g
  tissue uptake at 72 h: 0.53 ± 0.1 %ID/g
[1]; [7]
  tissue uptake at 1 h: 0.96 ± 0.24 %ID/g
  tissue uptake at 24 h: 0.52 ± 0.08 %ID/g
  tissue uptake at 48 h: 0.52 ± 0.03 %ID/g
  tissue uptake at 72 h: 0.42 ± 0.02 %ID/g
[1]; [8]
  tissue uptake at 1 h: 0.92 ± 0.07 %ID/g
  tissue uptake at 24 h: 0.6 ± 0.11 %ID/g
  tissue uptake at 48 h: 0.5 ± 0.09 %ID/g
  tissue uptake at 72 h: 0.36 ± 0.12 %ID/g
[1]; skin, read-out: uptake Skin
  tissue uptake at 1 h: 2.16 ± 0.35 %ID/g
  tissue uptake at 24 h: 1.49 ± 0.57 %ID/g
  tissue uptake at 48 h: 0.95 ± 0.05 %ID/g
  tissue uptake at 72 h: 1.08 ± 0.16 %ID/g
[1]; [9]
  tissue uptake at 1 h: 5.46 ± 0.54 %ID/g
  tissue uptake at 24 h: 3.02 ± 0.32 %ID/g
  tissue uptake at 48 h: 1.74 ± 0.22 %ID/g
  tissue uptake at 72 h: 0.71 ± 0.16 %ID/g
[1]; [10]
  tissue uptake at 1 h: 0.75 ± 0.03 %ID/g
  tissue uptake at 24 h: 0.12 ± 0.01 %ID/g
  tissue uptake at 48 h: 0.1 ± 0.02 %ID/g
  tissue uptake at 72 h: 0.1 ± 0.01 %ID/g
[1]; [11]
  tissue uptake at 1 h: 9.16 ± 0.58 %ID/g
  tissue uptake at 24 h: 7.55 ± 1.45 %ID/g
  tissue uptake at 48 h: 5.49 ± 0.27 %ID/g
  tissue uptake at 72 h: 4.76 ± 1.22 %ID/g
BxPC-3 (αvβ6 (+)) tumors; 1 h p.i.
  BxPC-3/kidney ratio: 0.22±0.05
  BxPC-3/large intestine ratio: 0.77±0.25
  BxPC-3/stomach ratio: 0.50±0.08
  uptake Blood: 5.36±0.71 % ID/g
  uptake BxPC-3 tumor: 4.54±0.42 % ID/g
  uptake Kidneys: 20.89±3.1 % ID/g
  uptake Stomach: 9.16±0.58 % ID/g
BxPC-3 (αvβ6 (+)) tumors; 72 h p.i.
  BxPC-3/kidney ratio: 0.60±0.02
  BxPC-3/large intestine ratio: 1.77±0.26
  BxPC-3/stomach ratio: 1.16±0.30
  uptake Blood: 0.01±0.00 % ID/g
  uptake BxPC-3 tumor: 5.29±0.75 % ID/g
  uptake Kidneys: 8.84±1.15 % ID/g
  uptake Stomach: 4.76±1.22 % ID/g
BxPC-3 (αvβ6 (+)) tumors; at all times (1-72 h)
  uptake in BxPC-3 tumor as compared to [^177Lu]Lu DOTA-5G: at least 4 fold
